{"source": "patent US20120114647A1", "about": "(GlaxoSmithKline, published 2012)", "key": {"human serum albumin [1]": {"target": "T1, human serum albumin (human, UniProt P02768 25-609)", "T1 construct": "also called HSA; human SA", "experiment": "SPR (BIAcore), eight-point dilution kinetics"}, "rat serum albumin [2]": {"target": "T2, rat serum albumin (rat, UniProt P02770 25-608)", "T2 construct": "also called RSA", "experiment": "SPR (BIAcore), eight-point dilution kinetics"}, "mouse serum albumin [3]": {"target": "T3, mouse serum albumin (mouse, UniProt P07724 25-608)", "T3 construct": "also called MSA", "experiment": "SPR (BIAcore), eight-point dilution kinetics"}, "[4]": {"target": "T4, Cynomolgus monkey serum albumin (Cynomolgus monkey), A2V9Z4", "T4 chain": "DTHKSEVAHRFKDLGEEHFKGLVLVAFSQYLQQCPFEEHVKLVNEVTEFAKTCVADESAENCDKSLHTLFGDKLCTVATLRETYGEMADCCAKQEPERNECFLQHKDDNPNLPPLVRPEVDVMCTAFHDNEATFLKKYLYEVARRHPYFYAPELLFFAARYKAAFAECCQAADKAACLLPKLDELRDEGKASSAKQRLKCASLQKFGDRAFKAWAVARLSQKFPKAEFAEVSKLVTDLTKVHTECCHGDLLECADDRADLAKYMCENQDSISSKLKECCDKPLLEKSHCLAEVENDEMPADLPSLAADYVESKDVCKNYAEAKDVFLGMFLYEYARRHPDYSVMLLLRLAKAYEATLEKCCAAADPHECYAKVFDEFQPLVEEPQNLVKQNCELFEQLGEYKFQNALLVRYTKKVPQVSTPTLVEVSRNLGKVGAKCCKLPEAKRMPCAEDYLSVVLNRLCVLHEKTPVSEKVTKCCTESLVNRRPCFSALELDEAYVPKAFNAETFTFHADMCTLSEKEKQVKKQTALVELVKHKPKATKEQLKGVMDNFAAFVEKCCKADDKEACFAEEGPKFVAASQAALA", "experiment": "SPR (BIAcore), eight-point dilution kinetics", "conditions": "remark: other sources report otherwise"}, "human serum albumin [5]": {"target": "T1, human serum albumin", "experiment": "SPR (Biacore), cross-reactivity"}, "[6]": {"target": "T5, Cynomolgus monkey serum albumin (Cynomolgus monkey, UniProt A2V9Z4 25-608)", "T5 construct": "also called CSA; cyno serum albumin", "experiment": "SPR (Biacore), cross-reactivity"}, "rat serum albumin [7]": {"target": "T2, rat serum albumin", "experiment": "SPR (Biacore), cross-reactivity"}, "mouse serum albumin [8]": {"target": "T3, mouse serum albumin", "experiment": "SPR (Biacore), cross-reactivity"}, "[9]": {"target": "T5, Cynomolgus monkey serum albumin", "experiment": "SPR (BIAcore), eight-point dilution kinetics"}, "human serum albumin [10]": {"target": "T1, human serum albumin", "experiment": "SPR (Biacore), cross-reactivity against four serum albumins"}}}
{"binder": "DOM7r-31-14 (VHH) VHH: EVQLLESGGGLVQPGGSLRLSCTASGFTFRHYRMGWVRQAPGKGLEWVSWIRPDGTFTYYADSVKGRFTISRDNSKNTLYLQMNSLRAEDTAVYYCAKSYMADRFDYWGQGTLVTVSS", "values": [{"measurement": "Kd", "setting": "human serum albumin [1]", "value": 58, "unit": "nM"}, {"measurement": "Kd", "setting": "rat serum albumin [2]", "value": 46, "unit": "nM"}, {"measurement": "Kd", "setting": "mouse serum albumin [3]", "value": 6, "unit": "nM"}, {"measurement": "Kd", "setting": "[4]", "value": 31000, "unit": "nM"}]}
{"binder": "DOM7r-31 (VHH, human VH dAb (AlbudAb)) VHH: EVQLLESGGGLVQPGGSLRLSCTASGFTFRHYRMGWVRQAPGKGLEWVSWIRPDGTFTYYADSVKGRFTISRDNSKNTLYLQMNSLRAEDTAVYYCAKSYMGDRFDYWGQGTLVTVSS", "values": [{"measurement": "binding result", "setting": "human serum albumin [5]", "value": "binds"}, {"measurement": "binding result", "setting": "[6]", "value": "binds"}, {"measurement": "binding result", "setting": "rat serum albumin [7]", "value": "binds"}, {"measurement": "binding result", "setting": "mouse serum albumin [8]", "value": "binds"}]}
{"binder": "DOM7r-201 (VHH) VHH: EVQLLESGGGLVQPGGSLRLSCAASGFTFNHYTMGWVRQAPGKGLEWVSLIHPSGTVIYYADSVKGRFTISRDNSKNTLYLQMNSLRAEDTAVYYCAKWSSRAFDYWGQGTLVTVSS", "values": [{"measurement": "Kd", "setting": "human serum albumin [1]", "value": 60, "unit": "nM"}, {"measurement": "Kd", "setting": "[9]", "value": 58, "unit": "nM"}, {"measurement": "Kd", "setting": "rat serum albumin [2]", "value": 240, "unit": "nM"}, {"measurement": "Kd", "setting": "mouse serum albumin [3]", "value": 280, "unit": "nM"}]}
{"binder": "DOM7r-36 (VHH, human VH dAb (AlbudAb)) VHH: EVQLLESGGGLVQPGGSLRLSCAASGFTFNHYTMGWVRQAPGKGLEWVSLIHPSGTVTYYADSVKGRFTISRDNSKNTLYLQMNSLRAEDTAVYYCAKWSSRAFDYWGQGTLVTVSS", "values": [{"measurement": "binding result", "setting": "human serum albumin [5]", "value": "binds"}, {"measurement": "binding result", "setting": "[6]", "value": "binds"}, {"measurement": "binding result", "setting": "rat serum albumin [7]", "value": "binds"}, {"measurement": "binding result", "setting": "mouse serum albumin [8]", "value": "binds"}]}
{"binder": "DOM7r-36-2 (VHH) VHH: EVQLLESGGGLVQPGGSLRLSCAASGFTFNHYTMGWVRQAPGKGREWVSLIHPSGTVTYYADSVKGRFTISRDNSKNTLYLQMNSLRAEDTAVYYCAKWSSRAFDYWGQGTLVTVSS", "values": [{"measurement": "Kd", "setting": "human serum albumin [1]", "value": 150, "unit": "nM"}, {"measurement": "Kd", "setting": "[9]", "value": 180, "unit": "nM"}, {"measurement": "Kd", "setting": "rat serum albumin [2]", "value": 190, "unit": "nM"}, {"measurement": "Kd", "setting": "mouse serum albumin [3]", "value": 520, "unit": "nM"}]}
{"binder": "DOM7r-36-8 (VHH) VHH: EVQLLESGGGLVQPGGSLRLSCAASGFTFNHYTMGWVRQAPGKGLEWVSLIHPSGTVIYYADSVKGRFTISRDNSKNTLYLQMNSLRAEDTAVYYCARWSSRAFDYWGQGTLVTVSS", "values": [{"measurement": "Kd", "setting": "human serum albumin [1]", "value": 67, "unit": "nM"}, {"measurement": "Kd", "setting": "[9]", "value": 92, "unit": "nM"}, {"measurement": "Kd", "setting": "rat serum albumin [2]", "value": 210, "unit": "nM"}, {"measurement": "Kd", "setting": "mouse serum albumin [3]", "value": 520, "unit": "nM"}]}
{"binder": "DOM7r-92-4 (VHH) VHH: EVQLLESGGGLVQPGGSLRLSCAASGFTFDTSSMLWVRQAPGKGLEWVSVIHQSGTPTYYADSVKGRFTISRDNSKNTLYLQMNSLRAEDTAVYYCAKFPSTHGKFDYWGQGTLVTVSS", "values": [{"measurement": "Kd", "setting": "human serum albumin [1]", "value": 130, "unit": "nM"}, {"measurement": "Kd", "setting": "[9]", "value": 98, "unit": "nM"}, {"measurement": "Kd", "setting": "rat serum albumin [2]", "value": 260, "unit": "nM"}, {"measurement": "Kd", "setting": "mouse serum albumin [3]", "value": 110, "unit": "nM"}]}
{"binder": "DOM7h-98 (VHH, human VH dAb (AlbudAb)) VHH: EVQLLESGGGLVQPGGSLRLSCAASGFTFGNYAMAWVRQAPGKGLEWVSSIDMVGIKTYYADSVKGRFTISRDNSKNTLYLQMNSLRAEDTAVYYCAKGFRIFDYWGQGTLVTVSS", "values": [{"measurement": "binding result", "setting": "human serum albumin [5]", "value": "binds"}, {"measurement": "binding result", "setting": "[6]", "value": "binds"}, {"measurement": "binding result", "setting": "rat serum albumin [7]", "value": "binds"}, {"measurement": "binding result", "setting": "mouse serum albumin [8]", "value": "binds"}]}
{"binder": "DOM7h-98-4 (VHH) VHH: EVQLLESGGGLVQPGGSLRLSCAASGFTFGNYAMAWVRQAPGKGLEWVSSIDMVGIKTYYADSVKGRFTNSRDNSKNTLYLQMNSLRAEDTAVYYCARGFRIFDYWGQGTLVTVSS", "values": [{"measurement": "Kd", "setting": "human serum albumin [1]", "value": 2000, "unit": "nM"}, {"measurement": "Kd", "setting": "[9]", "value": 3600, "unit": "nM"}, {"measurement": "Kd", "setting": "rat serum albumin [2]", "value": 580, "unit": "nM"}, {"measurement": "Kd", "setting": "mouse serum albumin [3]", "value": 810, "unit": "nM"}]}
{"binder": "DOM7r-38 (VHH, human VH dAb (AlbudAb)) VHH: EVQLLESGGGLVQPGGSLRLSCAASGFTFDNNAMGWVRQAPGKGLEWVSTISANGNATYYADSVKGRFTISRDNSKDTLYLQMNSLRAEDTAVYYCAKGFRRFDYWGQGTLVTVSS", "values": [{"measurement": "binding result", "setting": "human serum albumin [5]", "value": "binds"}, {"measurement": "binding result", "setting": "[6]", "value": "binds"}, {"measurement": "binding result", "setting": "rat serum albumin [7]", "value": "binds"}, {"measurement": "binding result", "setting": "mouse serum albumin [8]", "value": "binds"}]}
{"binder": "DOM7h-112 (VHH, human VH immunoglobulin single variable domain (dAb, AlbudAb), not camelid) VHH: EVQLLESGGGLVQPGGSLRLSCAASGFTFGGYVMGWVRQAPGKGLEWVSAINRFGSSTYYADSVKGRFTISRDNSKNTLYLQMNSLRAEDTAVYYCAKGSLRHFDYWGQGTLVTVSS", "values": [{"measurement": "binding result", "setting": "[6]", "value": "binds"}, {"measurement": "binding result", "setting": "rat serum albumin [7]", "value": "binds"}, {"measurement": "binding result", "setting": "mouse serum albumin [8]", "value": "binds"}, {"measurement": "binding result", "setting": "human serum albumin [10]", "value": "no binding"}]}
{"binder": "DOM7r-29 (VHH, human VH dAb (AlbudAb)) VHH: EVQLLESGGGLVQPGGSLRLSCAASGFTFKDYDMTWVRQAPGKGLEWVSMISSSGLWTYYADSVKGRFTISRDNSKNTLYLQMNSLRAEDTAVYYCAKGFRLFPRTFDYWGQGTLVTVSS", "values": [{"measurement": "binding result", "setting": "human serum albumin [5]", "value": "binds"}, {"measurement": "binding result", "setting": "[6]", "value": "binds"}, {"measurement": "binding result", "setting": "rat serum albumin [7]", "value": "binds"}, {"measurement": "binding result", "setting": "mouse serum albumin [8]", "value": "binds"}]}
{"binder": "DOM7r-35 (VHH, human VH dAb (AlbudAb); propensity to dimerise by MALLS) VHH: EVQLLESGGGLVQPGGSLRLSCAASGFTFSLYRMVWVRQAPGKGLEWVSMISQFGNQTYYADSVKGRFTISRDNSKNTLYLQMNSLRAEDTAVYYCAKVRSWDQTGGRRTFDYWGQGTLVTVSS", "values": [{"measurement": "binding result", "setting": "human serum albumin [5]", "value": "binds"}, {"measurement": "binding result", "setting": "[6]", "value": "binds"}, {"measurement": "binding result", "setting": "rat serum albumin [7]", "value": "binds"}, {"measurement": "binding result", "setting": "mouse serum albumin [8]", "value": "binds"}]}
